In the test the target is IL-13 receptor (IL-4Rα and IL-13Rα1) (UniProt P24394).
UniProt P24394, sequence (P24394 26-825, chain 1 of 2): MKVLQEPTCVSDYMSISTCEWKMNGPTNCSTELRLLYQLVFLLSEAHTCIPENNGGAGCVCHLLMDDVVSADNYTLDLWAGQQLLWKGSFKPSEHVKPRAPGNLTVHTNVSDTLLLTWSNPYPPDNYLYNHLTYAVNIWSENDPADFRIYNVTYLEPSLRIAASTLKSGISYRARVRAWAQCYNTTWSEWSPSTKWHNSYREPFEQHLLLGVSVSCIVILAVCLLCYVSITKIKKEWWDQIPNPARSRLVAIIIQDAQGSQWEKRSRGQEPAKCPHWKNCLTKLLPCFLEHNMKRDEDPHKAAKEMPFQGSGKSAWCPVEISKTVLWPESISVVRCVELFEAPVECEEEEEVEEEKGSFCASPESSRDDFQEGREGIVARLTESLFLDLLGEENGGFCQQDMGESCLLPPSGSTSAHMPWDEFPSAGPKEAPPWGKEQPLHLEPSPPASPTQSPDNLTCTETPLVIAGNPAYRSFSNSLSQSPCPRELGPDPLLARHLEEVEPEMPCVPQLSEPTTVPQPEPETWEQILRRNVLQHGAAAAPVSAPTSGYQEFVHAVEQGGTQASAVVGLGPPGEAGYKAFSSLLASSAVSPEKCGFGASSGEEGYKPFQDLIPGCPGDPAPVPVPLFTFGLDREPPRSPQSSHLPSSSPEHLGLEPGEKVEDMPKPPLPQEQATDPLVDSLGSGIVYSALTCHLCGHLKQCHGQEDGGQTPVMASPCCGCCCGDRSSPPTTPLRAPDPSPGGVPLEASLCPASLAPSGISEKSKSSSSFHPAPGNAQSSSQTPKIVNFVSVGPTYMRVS
UniProt P24394, sequence (P78552 22-427, chain 2 of 2, further chain): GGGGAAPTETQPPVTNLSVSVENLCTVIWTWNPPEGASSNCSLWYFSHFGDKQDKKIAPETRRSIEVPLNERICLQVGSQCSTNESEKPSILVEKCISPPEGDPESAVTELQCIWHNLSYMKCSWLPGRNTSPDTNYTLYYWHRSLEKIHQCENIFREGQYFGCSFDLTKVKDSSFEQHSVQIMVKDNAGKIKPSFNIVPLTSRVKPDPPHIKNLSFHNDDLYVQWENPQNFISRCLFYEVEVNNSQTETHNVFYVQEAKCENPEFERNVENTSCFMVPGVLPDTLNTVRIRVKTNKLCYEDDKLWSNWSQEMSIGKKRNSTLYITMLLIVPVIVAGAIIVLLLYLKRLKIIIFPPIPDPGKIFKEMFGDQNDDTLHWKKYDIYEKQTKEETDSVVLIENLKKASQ

In turn, “human recombinant interleukin 13 (from UniProt P35225 25-146) (ligand)” displayed an SEAP reporter (P STAT6/cEBP-SEAP) in HEK-293 cells co-transfected with IL-13Rα1, IL-4Rα and STAT6, 48 h with different physiological IL-13 concentrations; fold induction of 33 fold.
